Measured values published in patent US8080523 (dated 2011).

B1: Kv1.1 (other)
chain: MTVMSGENADEASTAPGHPQDGSYPRQADHDDHECCERVVINISGLRFETQLKTLAQFPNTLLGNPKKRMRYFDPLRNEYFFDRNRPSFDAILYYYQSGGRLRRPVNVPLDMFSEEIKFYELGEEAMEKFREDEGFIKEEERPLPEKEYQRQVWLLFEYPESSGPARVIAIVSVMVILISIVIFCLETLPELKDDKDFTGTIHRIDNTTVIYTSNIFTDPFFIVETLCIIWFSFELVVRFFACPSKTDFFKNIMNFIDIVAIIPYFITLGTEIAEQEGNQKGEQATSLAILRVIRLVRVFRIFKLSRHSKGLQILGQTLKASMRELGLLIFFLFIGVILFSSAVYFAEAEEAESHFSSIPDAFWWAVVSMTTVGYGDMYPVTIGGKIVGSLCAIAGVLTIALPVPVIVSNFNYFYHRETEGEEQAQLLHVSSPNLASDSDLSRRSSSTISKSEYMEIEEDMNNSIAHYRQANIRTGNCTTADQNCVNKSKLLTDV
B2: Kv1.3 (other)
chain: MTVVPGDHLLEPEAAGGGGGDPPQGGCGSGGGGGGCDRYEPLPPALPAAGEQDCCGERVVINISGLRFETQLKTLCQFPETLLGDPKRRMRYFDPLRNEYFFDRNRPSFDAILYYYQSGGRIRRPVNVPIDIFSEEIRFYQLGEEAMEKFREDEGFLREEERPLPRRDFQRQVWLLFEYPESSGPARGIAIVSVLVILISIVIFCLETLPEFRDEKDYPASPSQDVFEAANNSTSGAPSGASSFSDPFFVVETLCIIWFSFELLVRFFACPSKATFSRNIMNLIDIVAIIPYFITLGTELAERQGNGQQAMSLAILRVIRLVRVFRIFKLSRHSKGLQILGQTLKASMRELGLLIFFLFIGVILFSSAVYFAEADDPSSGFNSIPDAFWWAVVTMTTVGYGDMHPVTIGGKIVGSLCAIAGVLTIALPVPVIVSNFNYFYHRETEGEEQAQYMHVGSCQHLSSSAEELRKARSNSTLSKSEYMVIEEGGMNHSAFPQTPFKTGNSTATCTTNNNPNSCVNIKKIFTDV

Row | Binder | Kd (ShK(D2)) | Kd (ShK(L1)) | Kd (ShK(L3)) | Kd (ShK(D3))
1 | B1 | 1.1 nM | 1 nM | 1.1 nM | 
2 | B2 |  |  |  | 0.07 nM
